Source: patent publication US7183387 (Genentech, dated 2007)
Substitutions are numbered along the chain they refer to.

How the values were obtained:
Experiment in all cases: ELISA, IgG:IgE hexamers on receptor-GST
[1] = molecular target: T1, human FcγRIIIA-F158 α subunit extracellular domain-6His-GST fusion (human, UniProt P08637 17-208)
T1 construct: also called FcγRIIIA-Phe158; not shown: glutathione S-transferase (GST)

[2] = molecular target: T2, human FcγRIIA-H131 α subunit extracellular domain-6His-GST fusion (human, UniProt P12318 34-217)
T2 construct: also called FcγRIIA-His131; not shown: glutathione S-transferase (GST)
T2 sequence: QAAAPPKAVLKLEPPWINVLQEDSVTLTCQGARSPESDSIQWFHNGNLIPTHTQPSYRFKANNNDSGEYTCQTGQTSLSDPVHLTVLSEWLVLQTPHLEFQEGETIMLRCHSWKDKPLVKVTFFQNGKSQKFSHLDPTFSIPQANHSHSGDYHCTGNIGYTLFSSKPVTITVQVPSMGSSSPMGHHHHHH

[3] = molecular target: T3, human FcγRIIA-R131 α subunit extracellular domain-6His-GST fusion (human, UniProt P12318 34-217)
T3 construct: also called FcγRIIA-Arg131; not shown: glutathione S-transferase (GST)
T3 sequence: T2 sequence with H134R

[4] = molecular target: T4, human FcγRIIB α subunit extracellular domain-6His-GST fusion (human, UniProt P31994 43-217)
T4 construct: not shown: glutathione S-transferase (GST)
T4 sequence: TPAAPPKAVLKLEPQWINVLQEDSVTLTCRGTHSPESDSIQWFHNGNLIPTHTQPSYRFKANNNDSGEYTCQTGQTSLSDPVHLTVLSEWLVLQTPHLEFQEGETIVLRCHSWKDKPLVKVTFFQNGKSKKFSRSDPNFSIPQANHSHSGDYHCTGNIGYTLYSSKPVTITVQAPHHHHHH

T1 sequence (P08637 other isoform, or with tags, fused parts or gaps, form in doubt): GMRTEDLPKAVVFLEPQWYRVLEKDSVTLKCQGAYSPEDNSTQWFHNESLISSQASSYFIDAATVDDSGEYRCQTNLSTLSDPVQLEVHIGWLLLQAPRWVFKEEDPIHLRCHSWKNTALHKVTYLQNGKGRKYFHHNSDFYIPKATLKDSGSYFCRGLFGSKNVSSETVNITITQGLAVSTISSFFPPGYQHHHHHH

ratio to native IgG1 [1]: 0.08 | ratio to native IgG1 [2]: 0.59 | ratio to native IgG1 [3]: 1.18 | ratio to native IgG1 [4]: 0.95
B1: E27 IgG1 variant S267(280)G (antibody)
heavy: not shown
light: DIQLTQSPSSLSASVGDRVTITCRASKPVDGEGDSYLNWYQQKPGKAPKLLIYAASYLESGVPSRFSGSGSGTDFTLTISSLQPEDFATYYCQQSHEDPYTFGQGTKVEIKRTVAAPSVFIFPPSDEQLKSGTASVVCLLNNFYPREAKVQWKVDNALQSGNSQESVTEQDSKDSTYSLSSTLTLSKADYEKHKVYACEVTHQGLSSPVTKSFNRGEC
notes: also called IG2 189
